Test results taken from publication PMC6160412, “Structural insights into modulation and selectivity of transsynaptic neurexin–LRRTM interaction” (Nature Communications, 2018).
Where a chain is given by its changes, count along the chain named. Names and notes keep the numbering of the source. Values belong to the binder of their own block, whether it stands above or below them.

Key:
Conditions in all cases: both partners purified
[1] = molecular target: T1, human LRRTM2 LRR domain, wild type (human, UniProt O43300 34-371); test: SPR; Biacore T200; wild-type or mutant LRRTM immobilised on a CM5 chip by amine coupling; Nrxn1β as analyte in two-fold dilutions from 40 µM (from 160 µM for +S4 and R206A); 25 °C; 20 mM Hepes-NaOH pH 7.5, 150 mM NaCl, 2 mM CaCl2, 0.005% Tween-20, 0.5 g/L BSA; equilibrium KD
T1 construct: signal peptide in the construct; human LRRTM2 LRR domain, residues 1-371 cloned (residues 34-371 are named for the crystallised protein); Secreted with its own signal peptide; the mature protein probably begins at residue 34, as in the crystallised protein; also called LRRTM2^WT; hLRRTM2; source: Expi293F, transiently expressed, purified from culture medium (Ni-NTA, SEC)
T1 sequence (looked up): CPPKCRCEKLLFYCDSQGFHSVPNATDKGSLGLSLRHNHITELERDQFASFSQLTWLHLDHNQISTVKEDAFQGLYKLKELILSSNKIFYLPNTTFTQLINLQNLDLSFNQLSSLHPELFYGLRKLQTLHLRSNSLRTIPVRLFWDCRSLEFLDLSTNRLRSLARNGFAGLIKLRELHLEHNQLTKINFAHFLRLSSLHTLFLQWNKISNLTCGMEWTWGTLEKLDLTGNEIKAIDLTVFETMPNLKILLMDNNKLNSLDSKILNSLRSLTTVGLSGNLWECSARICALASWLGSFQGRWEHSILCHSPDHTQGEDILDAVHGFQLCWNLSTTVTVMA

[2] = molecular target: T1, human LRRTM2 LRR domain, wild type; test: ITC; MicroCal Auto-iTC, 25 °C; LRRTM2 (15 µM) in the cell, Nrxn1β (200 µM) injected; 20 mM Hepes-NaOH pH 7.5, 150 mM NaCl, 2 mM CaCl2, 0.005% Tween-20, no BSA; one-site model
[3] = molecular target: T2, human LRRTM2 LRR domain, D352A mutant (human, UniProt O43300 34-371, D352A); test: SPR; Biacore T200; wild-type or mutant LRRTM immobilised on a CM5 chip by amine coupling; Nrxn1β as analyte in two-fold dilutions from 40 µM (from 160 µM for +S4 and R206A); 25 °C; 20 mM Hepes-NaOH pH 7.5, 150 mM NaCl, 2 mM CaCl2, 0.005% Tween-20, 0.5 g/L BSA; equilibrium KD
T2 construct: signal peptide in the construct; human LRRTM2 LRR domain, residues 1-371 cloned, with D352A; also called LRRTM2 D352A; source: Expi293F, transiently expressed, purified from culture medium (Ni-NTA, SEC)
T2 sequence (looked up): T1 sequence (looked up) with D319A

[4] = molecular target: T3, human LRRTM2 LRR domain, H355A mutant (human, UniProt O43300 34-371, H355A); test: as above
T3 construct: signal peptide in the construct; human LRRTM2 LRR domain, residues 1-371 cloned, with H355A; Neuraminidase was added before crystallization to trim N-linked glycans; also called LRRTM2^H355A; hLRRTM2^H355A; source: Expi293F, transiently expressed, purified from culture medium (Ni-NTA, SEC); for crystallization coexpressed with Nrxn1β (–S4) LNS and separated by SEC
T3 sequence (looked up): T1 sequence (looked up) with H322A

[5] = molecular target: T4, human LRRTM2 LRR domain, F357Y mutant (human, UniProt O43300 34-371, F357Y); test: as above
T4 construct: signal peptide in the construct; human LRRTM2 LRR domain, residues 1-371 cloned, with F357Y; also called LRRTM2^F357Y; source: Expi293F, transiently expressed, purified from culture medium (Ni-NTA, SEC)
T4 sequence (looked up): T1 sequence (looked up) with F324Y

Kd [1]: > 160 µM
B1: human Nrxn1β LNS domain (–S4), R206A mutant (domain or fragment)
chain: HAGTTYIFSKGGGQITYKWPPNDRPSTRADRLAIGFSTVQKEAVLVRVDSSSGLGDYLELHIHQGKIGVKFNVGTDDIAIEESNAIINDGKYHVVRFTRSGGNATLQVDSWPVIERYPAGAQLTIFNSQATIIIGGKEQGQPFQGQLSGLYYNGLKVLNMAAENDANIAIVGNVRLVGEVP
modifications: Ca2+-bound (2 mM CaCl2). Entry P58400 carries the S4 insert at 205-234, so paper (-S4) residues 205-266 are entry 235-296 (R206 = R236).

Kd [1]: > 80 µM
B2: human Nrxn1β LNS domain with the S4 insert (+S4) (domain or fragment)
chain: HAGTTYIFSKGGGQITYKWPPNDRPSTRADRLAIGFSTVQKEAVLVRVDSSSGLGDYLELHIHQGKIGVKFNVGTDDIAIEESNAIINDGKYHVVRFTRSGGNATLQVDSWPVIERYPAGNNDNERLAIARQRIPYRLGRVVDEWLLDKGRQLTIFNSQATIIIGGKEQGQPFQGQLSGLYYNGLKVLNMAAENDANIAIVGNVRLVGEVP
modifications: Ca2+-bound (2 mM CaCl2). S4 insert is entry residues 205-234.

Kd [2]: 4.2 µM
fold decrease in affinity against wild-type LRRTM2 [3]: > 9 fold
Kd [4]: 4.3 µM
fold decrease in affinity against wild-type LRRTM2 [5]: ~5 fold
Kd [1]: 4 µM
B3: human Nrxn1β LNS domain (–S4), wild type (domain or fragment)
chain: not shown
notes: human neurexin-1β LNS domain, splice variant without the S4 insert, residues 86-266; numbers count on: human Nrxn1β (–S4) (NM_001330092.1); also called Nrxn1β (–S4); Nrxin1β (–S4); source: Expi293F, transiently expressed, purified from culture medium (Ni-NTA, SEC); for crystallization coexpressed with LRRTM2 LRR and separated by SEC
